The text below walks through data of patent publication US20220316002.

In this data set the target is thiolated streptavidin (ProteinMods) (UniProt P22629).
Sequence of UniProt P22629 (P22629 whole entry, looked up): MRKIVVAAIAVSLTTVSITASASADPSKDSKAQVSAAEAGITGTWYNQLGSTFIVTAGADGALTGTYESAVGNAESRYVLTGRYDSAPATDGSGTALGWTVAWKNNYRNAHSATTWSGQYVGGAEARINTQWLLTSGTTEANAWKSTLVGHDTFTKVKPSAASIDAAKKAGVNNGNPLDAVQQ

Regarding “Gen II Φ29 DNA polymerase (D12A/D66A, biotinylated Avitag at the N terminus and second Avitag between E279 and D280)”, the “highest peak of the single-molecule conductance distribution (STM, 4.5 nm gap)” value is reported as “The 3 nS peak observed in FIG. 14B is now absent”.
